From publication PMC5624926

Assay: recombinant expression of point mutants
Conditions: glycan lost; control: wild-type CD22 20-330

CD22 (Siglec-2): N101A
expression_or_secretion: decreases
